Assay results: PMC4787773

Molecular target: hnRNPK (human, UniProt P61978 1-463)
Assay: EMSA

Binder	binding result
GGGGCCGGGGCCGGGGCCGGGGCCGGGGCCGGGGCCGGGGCCGGGGCC (structured_DNA, 5-methylcytosine at each CpG) [d(GGGGCC)8 5mCpG]	no binding
GGGGCCGGGGCCGGGGCCGGGGCCGGGGCCGGGGCCGGGGCCGGGGCC (structured_DNA, 5-hydroxymethylcytosine at each CpG) [d(GGGGCC)8 5hmCpG]	no binding
